Literature values as cited in paper PMC4266928.

Molecular target: insulin (Homo sapiens) (UniProt P01308)

For insulin (from UniProt P01308), the Kd is given as 10 µM.
